# Results from article PMC9481697.
# What was measured:
# [1] = target: FlaA (TDE1712), flagellar filament sheath protein of Treponema denticola (Treponema denticola ATCC 35405); test: isolation of native flagellar filaments, 2D gel electrophoresis with densitometry; periplasmic flagella isolated from the ΔflaB3 mutant; 2D gels, Coomassie staining, densitometry; ratios relative to FlaA
# [2] = target: FlaA (TDE1712), flagellar filament sheath protein of Treponema denticola (Treponema denticola ATCC 35405); test: isolation of native flagellar filaments, 2D gel electrophoresis with densitometry; periplasmic flagella isolated from the ΔflaB2 mutant; 2D gels, Coomassie staining, densitometry; ratios relative to FlaA
# [3] = target: FlaA (TDE1712), flagellar filament sheath protein of Treponema denticola (Treponema denticola ATCC 35405); test: isolation of native flagellar filaments, 2D gel electrophoresis with densitometry and immunoblot
# [4] = target: FlaA (TDE1712), flagellar filament sheath protein of Treponema denticola (Treponema denticola ATCC 35405); test: isolation of native flagellar filaments, 2D gel electrophoresis with densitometry; periplasmic flagella isolated from the ΔflaB1 mutant; 2D gels, Coomassie staining, densitometry; ratios relative to FlaA
substance,measurement,setting,value
"FlaB1 (TDE1477), flagellar filament core flagellin of Treponema denticola (from UniProt Q73MN1 1-286) (natural protein)",stoichiometry relative to FlaA in isolated filaments (ratio relative to FlaA),[1],1.12
same,stoichiometry relative to FlaA in isolated filaments (ratio relative to FlaA),[2],1.04
same,stoichiometry relative to FlaA in isolated filaments (ratio relative to FlaA),[3],0.71
"FlaB3 (TDE1475), flagellar filament core flagellin of Treponema denticola (from UniProt Q73MN3 1-285) (natural protein)",stoichiometry relative to FlaA in isolated filaments (ratio relative to FlaA),[4],0.94
same,stoichiometry relative to FlaA in isolated filaments (ratio relative to FlaA),[2],0.38
same,stoichiometry relative to FlaA in isolated filaments (ratio relative to FlaA),[3],0.18
"FlaB2 (TDE1004), flagellar filament core flagellin of Treponema denticola (from UniProt Q73NZ6 1-286) (natural protein)",stoichiometry relative to FlaA in isolated filaments (ratio relative to FlaA),[4],0.5
same,stoichiometry relative to FlaA in isolated filaments (ratio relative to FlaA),[1],0.36
same,stoichiometry relative to FlaA in isolated filaments (ratio relative to FlaA),[3],0.61
